Key:
C-PAE cells [1] = test: Total protein synthesis, 35S-methionine incorporation; type: cell-based, bovine
Method: Primary human renal epithelial cells (HRE) were purchased from Clonetics (San Diego, Calif., USA) and were maintained in REGM (Clonetics Corp.). Other cell lines were obtained and maintained as described above. Cells were serum-starved for 24 hrs (0.5% FCS), stimulated with 10% FCS in the presence of T3 peptide, Tumstatin-44-131, endostatin or rapamycin for 12-24 hours. After pre-incubation of cells in methionine-free media for 1 hour, cells were labeled with ^35S-methionine for 1 hour and incorporation of radioactivity into trichloracetic acid precipitates was analyzed (Sudhakar, A. et al., 2000, Biochem. 39:12929-38; Maeshima, Y. et al., 1996, J. Amer. Soc. Nephrol. 7:2219-29). ANOVA with a one-tailed Student's t test was used to identify significant differences in multiple comparisons in the present study. A level of P<0.05 was considered statistically significant.

HUVECs = test: Endothelial tube formation on Matrigel; type: cell-based, human
Method: Tumstatin-44-131 was also found to inhibit endothelial tube formation, as shown by Matrigel assay. The Matrigel assay was performed as described in the examples above. Briefly, HUVECS were allowed to form tubes on Matrigel-coated plates incubated with or without 5 μg/ml E. Coli-expressed Tumstatin-44-131. BSA-treated cells and yeast-expressed human endostatin (5 and 20 μg/ml) was used as controls. […] The average percentage tube branch formation after treatment was 22.7±3.1 for the BSA treatment, 2.1±2.0 for Tumstatin-44-131 treatment, while the 5 μg/ml and 20 μg/ml endostatin produced an average of 19.4±3.0 and 7.5±6.0, respectively.

C-PAE cells [2] = test: Cell cycle analysis (propidium iodide, flow cytometry); type: cell-based, bovine; details: 10% FBS
[3] = system: mouse aortic endothelial cells (MAE); test: Endothelial tube formation on Matrigel; type: cell-based; details: for ED50: endothelial tube assay (FIGS. 30 and 31)
Method: To measure inhibition of endothelial tube formation, 320 μl of Matrigel (Collaborative Biomedical Products, Bedford, Mass., USA) was added to each well of a 24-well plate and allowed to polymerize (Grant, D. S. et al., 1994, Pathol. Res. Pract. 190:854-63). A suspension of 25,000 mouse aortic endothelial cells (MAE) in EGM-2 medium (Clonetics Corp., San Diego, Calif., USA) without antibiotic was passed into each well coated with Matrigel. The cells were treated with increasing concentrations of either Arresten, BSA, sterile PBS or the 7S domain. All assays were performed in triplicate. Cells were incubated for 24-48 hours at 37° C. and viewed using a CK2 Olympus microscope (3.3 ocular, 10× objective). The cells were then photographed using 400 DK coated TMAX film (Kodak). Cells were stained with diff-quik fixative (Sigma Chemical Company, St. Louis, Mo., USA) and photographed again. Ten fields were viewed, and the tubes counted and averaged.
Matrigel (Collaborative Biomedical Products, Bedford, Mass., USA) was added ([…]) to each well of a 24 well plate and allowed to polymerize (Grant, D. S. et al., supra). A suspension of 25,000 mouse aortic endothelial cells (MAE) in EGM-2 (Clonetics Corporation, San Diego, Calif., USA) medium without antibiotic was passed into each well coated with Matrigel. The cells were treated with either Canstatin, BSA, sterile PBS or α5-NC1 domain in increasing concentrations. All assays were performed in triplicate. Cells were incubated for 24-48 hours at 37° C. and viewed using a CK2 Olympus microscope (3.3 ocular, 10× objective). The cells were then photographed using 400 DK coated TMAX film (Kodak). Cells were stained with diff-quik fixative (Sigma Chemical Co., St. Louis, Mo., USA) and photographed again (Grant, D. S. et al., 1994, Pathol. Res. Pract. 190:854-63). Ten fields were viewed, tubes counted and averaged.
Matrigel (Collaborative Biomedical Prods., Bedford, Mass., USA) was added ([…]) to each well of a 24-well plate and allowed to polymerize (Grant, D. S. et al., 1994, Pathol. Res. Pract. 190:854-63). A suspension of 25,000 MAE cells in EGM-2 medium (Clonetics Corporation, San Diego, Calif., USA) without antibiotic was passed into each well coated with Matrigel (Grant, D. S. et al., 1994, Pathol. Res. Pract. 190:854-63). The cells were treated with either Tumstatin, BSA or 7S domain in increasing concentrations. Control cells were incubated with sterile PBS. All assays were performed in triplicate. Cells were incubated for 24-48 hours at 37° C. and viewed using a CK2 Olympus microscope (magnification of 3.3× ocular, 10× objective). The cells were then photographed using 400 DK coated TMAX film (Kodak). Cells were stained with diff-quik fixative (Sigma Chemical Co.) and photographed again (Grant, D. S. et al., 1994, Pathol. Res. Pract. 190:854-63). Ten fields were viewed, and the number of tubes were counted by two investigators unaware of the experimental protocols, and averaged.
Fragments and mutants of Arresten and Canstatin were also made according to the Pseudomonas elastase digestions of Mariyama et al. (1992, J. Biol. Chem. 267:1253-58). The digest was resolved by gel filtration HPLC and the resultant fragments were analyzed by SDS-PAGE and evaluated in the endothelial tube assay described above. These fragments included a 12 kDa fragment of Arresten, an 8 kDa fragment of Arresten, and a 10 kDa fragment of Canstatin. In addition, two fragments of Tumstatin (‘333’ and ‘334’) were generated by PCR cloning.

786-O cells = test: Annexin V-FITC apoptosis assay; type: cell-based, human; details: 15 μg/ml
Method: (§1) Annexin V-FITC Labeling. In order to establish apoptosis as the potential mode of action for Canstatin, Annexin V-FITC was used to label externalized phosphatidylserine (PS), to assess apoptotic cells. 0.5×10^6 C-PAE cells, PC-3, 786-O and HEK 293 cells were added to each well of a 6 well tissue culture plate in 10% FBS supplemented DMEM (BioWhittaker, Walkersville, Md., USA) overnight. The next day, fresh medium was added to all wells together with 40 ng/ml TNF-α (positive control) or 15 μg/ml Canstatin. Control cells received an equal volume of PBS. After 24 hours of treatment, medium containing detached cells was collected and attached cells were trypsinized and combined with detached cells and centrifuged at 3,000×g. Cells were then washed and phosphatidyl-serine externalization (an early apoptotic indicator) was measured by labeling with FITC-labeled annexin V (Clontech, Palo Alto, Calif., USA) according to the manufacturer's instructions. Annexin V-FITC-labeled cells were counted using a FAC Star Plus flow cytometer (Becton-Dickenson, Waltham, Mass., USA). For each treatment 15,000 cells were counted and stored in listmode.

HEK 293 cells = test: Annexin V-FITC apoptosis assay; type: cell-based, human; details: 15 μg/ml
Method: as §1

## LQRFTTMPFLFCNVNDVCNF [T3]
C-PAE cells [1]; 22.7 μM
  maximal inhibition of protein synthesis: about 45%

B1: Tumstatin-44-131: residues 44 to 131 of full-length Tumstatin (SEQ ID NO:33) (protein)
chain: FSFLFVQGNQRAHGQDLGTLGSCLQRFTTMPFLFCNVNDVCNFASRNDYSYWLSTPALMPMNMAPITGRALEPYISRCTVCEGPAIAI
modifications: Tumstatin-45-132 (amino acids 45-132 of SEQ ID NO10)
HUVECs; 5 μg/ml, BSA 22.7±3.1
  average percentage tube branch formation: 2.1±2.0

B2: endostatin: tumor associated angiogenesis inhibitor used as comparator (protein, UniProt P39060 1572-1754, looked up)
Endostatin: HSHRDFQPVLHLVALNSPLSGGMRGIRGADFQCFQQARAVGLAGTFRAFLSSRLQDLYSIVRRADRAAVPIVNLKDELLFPSWEALFSGSEGPLKPGARIFSFDGKDVLRHPTWPQKSVWHGSDPNGRRLTESYCETWRTEAPSATGQASSLLGGRLLGQSAASCHHAYIVLCIENSFMTASK
modifications: Endostatin
HUVECs; 5 μg/ml, BSA 22.7±3.1
  average percentage tube branch formation: 19.4±3.0
HUVECs; 20 μg/ml endostatin
  average percentage tube branch formation: 7.5±6.0
C-PAE cells [1]; 4.5 μM, 24 hours of serum stimulation, rapamycin 100 ng/ml
  inhibition of protein synthesis: did not inhibit protein synthesis
C-PAE cells [2]
  IC50, inhibition of cell cycle progression: no activity

B3: Tumstatin: NC1 domain of the α3 chain of type IV collagen, residues 1-244 (SEQ ID NO:10) (protein, listed as Homo sapiens)
chain: GLKGKRGDSGSPATWTTRGFVFTRHSQTTAIPSCPEGTVPLYSGFSFLFVQGNQRAHGQDLGTLGSCLQRFTTMPFLFCNVNDVCNFASRNDYSYWLSTPALMPMNMAPITGRALEPYISRCTVCEGPAIAIAVHSQTTDIPPCPHGWISLWKGFSFIMFTSAGSEGTGQALASPGSCLEEFRASPFLECHGRGTCNYYSNSYSFWLASLNPERMFRKPIPSTVKAGELEKIISRCQVCMKKRH
[3]
  concentration of maximum inhibition: 800 to 1000 ng/mL
  ED50: 0.55 µg/mL
[3]; 1 mg/ml of protein, produced in 293 cells
  Percentage of tube formation after treatment: 14.0±4.0

B4: Canstatin: NC1 domain of the α2 chain of Type IV collagen (SEQ ID NO:6) (protein, listed as Homo sapiens)
chain: VSIGYLLVKHSQTDQEPMCPVGMNKLWSGYSLLYFEGQEKAHNQDLGLAGSCLARFSTMPFLYCNPGDVCYYASRNDKSYWLSTTAPLPMMPVAEDEIKPYISRCSVCEAPAIAIAVHSQDVSIPHCPAGWRSLWIGYSFLMHTAAGDEGGGQSLVSPGSCLEDFRATPFIECNGGRGTCHYYANKYSFWLTTIPEQSFQGSPSADTLKAGLIRTHISRCQVCMKNL
786-O cells
  apoptosis of 786-O cells: no significant effect
HEK 293 cells
  apoptosis of HEK 293 cells: no significant effect
[3]; 1 mg of Canstatin protein produced in 293 cells
  inhibition of tube formation: near complete inhibition
[3]
  ED50: 0.4 µg/mL

B5: Tum-1: residues 54 to 244 of Tumstatin, lacking the N-terminal 53 amino acids (SEQ ID NO:22) (protein)
chain: QRAHGQDLGTLGSCLQRFTTMPFLFCNVNDVCNFASRNDYSYWLSTPALMPMNMAPITGRALEPYISRCTVCEGPAIAIAVHSQTTDIPPCPHGWISLWKGFSFIMFTSAGSEGTGQALASPGSCLEEFRASPFLECHGRGTCNYYSNSYSFWLASLNPERMFRKPIPSTVKAGELEKIISRCQVCMKKRH
modifications: Tum-1 (Tumstatin N-53) (amino acids 54-244 of SEQ ID NO10)
C-PAE cells [2]
  IC50, inhibition of cell cycle progression: about 5 μg/ml

— patent US7387779B2, “Anti-angiogenic proteins and fragments and methods of use thereof” (Beth Israel Deaconess Medical Center, priority 1998, dated 2008)
